# Measurements from US20070073040A1, “Anti-obesity polypeptides” (Yonsei University, priority 2001, published 2007).
# Where “and” joins values, the source holds several entries; their conditions need not be identical. Identical values can stand only once.
# Assays:
# [1] = clinical test, cited from earlier work
# adipose tissue = assay: Autopsy and pathological examination of experimental rabbits; assay type: in vivo, rabbit; conditions: polypeptide-Adjuvant mixture injected three times into hypoderm every two weeks, versus saline-Adjuvant
# Protocol: In FIG. 3A, arrows indicate distribution of adipose tissue in various organs in the test rabbit that SynLeptin-2 polypeptide-Adjuvant mixture was injected three times into the hypoderm every two weeks. In FIG. 3B, arrows indicate distribution of adipose tissue in various organs injected with saline-Adjuvant mixture three times into the hypoderm every two weeks.
# We analyzed the reasons for the decrease in body weight by autopsy and pathological examinations. […] When the rabbits were sacrificed and autopsy was carried out, no pathological abnormali in their organs was observed. However, remarkable reduction of fat mass not only in abdominal and subcutaneous adipose tissues but also tissues surrounding various organs was evident.
# [2] = Body weight of ZDF rats with nonfunctional Leptin receptor treated with SynLeptin polypeptides; assay type: in vivo, rat; conditions: 12-week-old ZDF rats; injected two times every two weeks into hypoderm; after about 30 days; saline control 8.5% increase
# Protocol: FIG. 2 illustrates weigh loss when SynLeptin-1 or 2 polypeptide was injected two times every two weeks into the hypoderm of 12-week-old ZFD rats with non-functional Leptin receptor.
# (§1) 4 white rabbits with 1.2 kg body weight were divided into a control group and an experimental group having two rabbits, respectively. The purified SynLeptin-1 or -2 protein (500-700 μg or saline was mixed with Adjuvant 2 ml (Sigma), and then injected into 4 different parts of the rabbit hypoderm. After 2 weeks, an equivalent amount of the protein-Adjuvant mixture was injected, and then third injection was performed after 2 weeks. Thereafter, body weight loss was measured after 10 days. The result was as follows. The body weight of the experimental group treated with SynLeptin-1 was 1.8 kg and 2.08 kg, respectively (average 1.94 kg), while the body weight of the control group was 2.5 kg and 2.45 kg, respectively (average 2.48 kg). […] Also we treated the ZDF rats with nonfunctional Leptin receptor gene with SynLeptin-1 or -2 polypeptides for 30 days (FIG. 2).
# [3] = Body weight of white rabbits after subcutaneous injection of protein-Adjuvant mixture; assay type: in vivo, rabbit; conditions: 10 days after third injection
# Protocol: as §1
molecule,measurement,setting,value
"Leptin: 16 kDa ob polypeptide hormone synthesized in adipose tissue, regulating body weight",weight response upon Leptin treatment (other obese people),[1]; other obese people,did not lost weight
same,body weight lost,[1]; some obese people,7.1 kg
"SynLeptin-2: Tat polypeptide of 86 amino acids from N-terminus of Tat, expressed from pGEX4T-3-SynLeptin-2 (protein, 86 amino acid Tat mutant, Tat polypeptide of 86 amino acids from N-terminus of Tat, expressed from pGEX4T-3-SynLeptin-2) MEPVDPRLEPWKHPGSQPKTACTNCYCKKCCFHCQVCFMTKALGISYGRKKRRQRRRAHQNSQTHQASLSKQPTSQSRGDPTGPKE",fat / adipose tissue at autopsy,adipose tissue,markedly reduced fat in various tissues including adipose tissue
same,weight loss (decrease of body weight),[2],4.3%
"SynLeptin-1: Tat polypeptide fragment, 71 (b9: 72) amino acids from N-terminus of Tat, expressed from pGEX4T-3-SynLeptin-1 (protein, 71 amino acid Tat mutant) MEPVNPSLEPWKHPGSQPKTACTNCYCAKCCFHCQVCFITKALGISYGRAKRRQRRRPPQGSQTHQVSLSK",body weight of individual rabbit of the experimental group,"[3]; rabbits, starting body weight 1.2 kg, control 2.5 and 2.45 kg",1.8 kg and 2.08 kg
same,average body weight of the experimental group,"[3]; two rabbits, control average 2.48 kg",1.94 kg
same,weight increase,[2],3.5%
